In article PMC3763810:

What was measured:
[1] = target: growth hormone secretagogue receptor (GHS-R1a) (UniProt Q92847)
[2] = target: ghrelin O-acyltransferase (GOAT) with a C-terminal 3xFlag tag (mouse) (UniProt P0C7A3)
UniProt P0C7A3, sequence (P0C7A3 whole entry): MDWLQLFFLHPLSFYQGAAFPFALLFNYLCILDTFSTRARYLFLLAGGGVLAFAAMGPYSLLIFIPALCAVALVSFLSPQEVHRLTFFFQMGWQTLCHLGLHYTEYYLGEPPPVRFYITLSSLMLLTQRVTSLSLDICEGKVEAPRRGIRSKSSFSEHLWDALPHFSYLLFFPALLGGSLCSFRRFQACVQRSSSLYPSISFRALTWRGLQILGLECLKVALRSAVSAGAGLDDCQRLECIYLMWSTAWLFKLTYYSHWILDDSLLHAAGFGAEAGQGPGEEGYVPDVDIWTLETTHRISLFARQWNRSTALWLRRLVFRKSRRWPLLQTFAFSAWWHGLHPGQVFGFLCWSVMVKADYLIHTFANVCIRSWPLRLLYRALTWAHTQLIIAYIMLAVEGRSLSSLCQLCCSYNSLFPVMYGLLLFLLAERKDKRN

UniProt Q92847, sequence (Q92847 whole entry): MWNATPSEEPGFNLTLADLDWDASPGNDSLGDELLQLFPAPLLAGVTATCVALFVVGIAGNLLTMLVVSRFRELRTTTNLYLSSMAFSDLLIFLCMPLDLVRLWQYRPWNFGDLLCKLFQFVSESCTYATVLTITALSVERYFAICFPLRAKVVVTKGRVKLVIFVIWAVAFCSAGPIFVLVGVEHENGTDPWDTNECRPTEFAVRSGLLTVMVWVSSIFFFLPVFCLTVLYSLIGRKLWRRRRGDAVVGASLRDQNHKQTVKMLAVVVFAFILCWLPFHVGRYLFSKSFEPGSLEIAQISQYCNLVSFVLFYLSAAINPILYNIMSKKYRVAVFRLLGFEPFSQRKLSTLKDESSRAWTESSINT

| Substance | EC50 in the GHS-R1a assay (stably transfected HEK-293T-GHS-R1a cells) [1] | inhibition of ghrelin acylation in cells, compounds used at 6 μM [2] |
| --- | --- | --- |
| Des-acyl ghrelin (peptide) | > 10000 nM |  |
| GO-CoA-Tat (peptide) | > 10000 nM | 75% |
| GO-Tat (peptide) | 23 nM |  |

Now from value to substance, other results behind:

| EC50 in the GHS-R1a assay (stably transfected HEK-293T-GHS-R1a cells) [1] | Substance | inhibition of ghrelin acylation in cells, compounds used at 6 μM [2] |
| --- | --- | --- |
| 18 nM | Acyl ghrelin (peptide) |  |
| 19 nM | Amide ghrelin (Ser3 Dap-Octanoyl-Amide) (peptide) |  |
| 270 nM | Ghrelin28-Oct-CoA (peptide) |  |
